Key:
Assay in all cases: SEC + other: dynamic light scattering
[1] = molecular target: G. stearothermophilus GerD D118A (Geobacillus stearothermophilus)
[2] = molecular target: G. stearothermophilus GerD F86P (Geobacillus stearothermophilus)
[3] = molecular target: G. stearothermophilus GerD M36P (Geobacillus stearothermophilus)
[4] = molecular target: G. stearothermophilus GerD M111P (Geobacillus stearothermophilus)
[5] = molecular target: G. stearothermophilus GerD M138P (Geobacillus stearothermophilus)
[6] = molecular target: G. stearothermophilus GerD Q122A (Geobacillus stearothermophilus)
[7] = molecular target: G. stearothermophilus GerD R148A (Geobacillus stearothermophilus)
[8] = molecular target: G. stearothermophilus GerD ΔH01-02 (Geobacillus stearothermophilus)
[9] = molecular target: G. stearothermophilus GerD ΔH5-8 (Geobacillus stearothermophilus)
[10] = molecular target: G. stearothermophilus GerD ΔH6-8 (Geobacillus stearothermophilus)

G. stearothermophilus GerD D118A (from UniProt A0ACH1E844 1-195) (natural protein)
stoichiometry N [1]: 3

G. stearothermophilus GerD F86P (from UniProt A0ACH1E844 1-195) (natural protein)
stoichiometry N [2]: 3

G. stearothermophilus GerD M36P (from UniProt A0ACH1E844 1-195) (natural protein)
stoichiometry N [3]: 3

G. stearothermophilus GerD M111P (from UniProt A0ACH1E844 1-195) (natural protein)
stoichiometry N [4]: 3

G. stearothermophilus GerD M138P (from UniProt A0ACH1E844 1-195) (natural protein)
stoichiometry N [5]: 3

G. stearothermophilus GerD Q122A (from UniProt A0ACH1E844 1-195) (natural protein)
stoichiometry N [6]: 3

G. stearothermophilus GerD R148A (from UniProt A0ACH1E844 1-195) (natural protein)
stoichiometry N [7]: 3

G. stearothermophilus GerD ΔH01-02 (from UniProt A0ACH1E844 60-180) (domain or fragment)
stoichiometry N [8]: 3

G. stearothermophilus GerD ΔH5-8 (from UniProt A0ACH1E844 1-120) (domain or fragment)
stoichiometry N [9]: 3

G. stearothermophilus GerD ΔH6-8 (from UniProt A0ACH1E844 1-133) (domain or fragment)
stoichiometry N [10]: 3

Reference: publication PMC4038265
